The results in this text go back to paper PMC10015821 (Matrix biology : journal of the International Society for …, 2022).

Common to all, as to assay: SPR
Test [1] addresses mouse HMCN1 fragment G2F-EGF1–5 (Strep-tagged) (mouse) (UniProt D3YXG0).
Test [2] addresses mouse HMCN1 fragment G2F (mouse) (UniProt D3YXG0).
For test [3], the target named is mouse HMCN1 fragment G2F-EGF1–2 (mouse) (UniProt D3YXG0).
In test [4] the target is mouse HMCN1 fragment G2F-EGF1–3 (mouse) (UniProt D3YXG0).
Test [5] addresses mouse HMCN1 fragment G2F-EGF1–4 (mouse) (UniProt D3YXG0).
For test [6], the target named is mouse HMCN1 fragment TSR6-G2F-EGF1–2 (mouse) (UniProt D3YXG0).
The next test addresses laminin-511 (UniProt O15230 36-3695; P07942 22-1786; P11047 34-1609).
For test [7], the target named is laminin-γ1 short arm (mouse) (UniProt P02468).
Sequence of laminin-γ1 short arm (mouse) (P02468 34-1607): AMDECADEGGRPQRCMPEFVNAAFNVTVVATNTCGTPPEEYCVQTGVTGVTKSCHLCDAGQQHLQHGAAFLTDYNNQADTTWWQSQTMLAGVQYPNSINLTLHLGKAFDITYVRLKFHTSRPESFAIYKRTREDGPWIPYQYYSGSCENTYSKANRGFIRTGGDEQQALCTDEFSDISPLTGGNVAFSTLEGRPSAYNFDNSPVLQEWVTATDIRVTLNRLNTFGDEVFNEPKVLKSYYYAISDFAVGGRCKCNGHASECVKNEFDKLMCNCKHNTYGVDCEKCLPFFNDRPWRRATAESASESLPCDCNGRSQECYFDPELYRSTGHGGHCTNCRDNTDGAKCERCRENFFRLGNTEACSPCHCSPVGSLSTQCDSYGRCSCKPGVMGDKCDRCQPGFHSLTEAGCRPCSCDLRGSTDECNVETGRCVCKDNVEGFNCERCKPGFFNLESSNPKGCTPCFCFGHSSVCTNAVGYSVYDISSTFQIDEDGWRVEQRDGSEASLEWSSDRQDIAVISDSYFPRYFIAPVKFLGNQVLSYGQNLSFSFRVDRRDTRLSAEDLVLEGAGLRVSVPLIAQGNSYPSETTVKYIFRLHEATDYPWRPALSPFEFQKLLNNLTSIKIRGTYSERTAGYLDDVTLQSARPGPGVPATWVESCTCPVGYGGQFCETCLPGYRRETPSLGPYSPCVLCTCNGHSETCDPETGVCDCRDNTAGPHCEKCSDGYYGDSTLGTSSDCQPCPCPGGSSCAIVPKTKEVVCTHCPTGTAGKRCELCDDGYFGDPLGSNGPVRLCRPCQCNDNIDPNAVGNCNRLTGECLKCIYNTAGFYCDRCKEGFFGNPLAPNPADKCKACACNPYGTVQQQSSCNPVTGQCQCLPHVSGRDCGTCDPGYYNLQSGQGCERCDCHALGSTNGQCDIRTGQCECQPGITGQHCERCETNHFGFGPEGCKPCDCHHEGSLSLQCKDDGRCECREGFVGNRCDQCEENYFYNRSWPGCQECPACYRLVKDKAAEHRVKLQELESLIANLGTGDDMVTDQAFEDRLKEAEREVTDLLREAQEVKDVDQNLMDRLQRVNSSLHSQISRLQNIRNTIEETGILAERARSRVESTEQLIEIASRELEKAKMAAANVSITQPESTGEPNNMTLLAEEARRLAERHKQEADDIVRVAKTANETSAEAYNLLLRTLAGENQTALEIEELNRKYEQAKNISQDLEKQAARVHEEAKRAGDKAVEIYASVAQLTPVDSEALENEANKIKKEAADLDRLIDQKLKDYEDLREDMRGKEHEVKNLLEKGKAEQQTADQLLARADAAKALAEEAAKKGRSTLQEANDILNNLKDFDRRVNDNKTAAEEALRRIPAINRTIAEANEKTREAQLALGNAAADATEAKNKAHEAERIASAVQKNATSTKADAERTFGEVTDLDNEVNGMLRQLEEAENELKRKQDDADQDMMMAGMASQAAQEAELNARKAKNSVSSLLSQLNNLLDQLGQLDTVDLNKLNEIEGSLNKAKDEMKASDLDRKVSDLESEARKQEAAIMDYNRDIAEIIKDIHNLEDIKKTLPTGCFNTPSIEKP
Test [8] has as its target mouse HMCN1 fragment EGF1–5 (mouse) (UniProt D3YXG0).
In test [9] the target is mouse HMCN1 fragment G2F-EGF1–5 (Strep-tagged) (mouse, UniProt D3YXG0 22-5634).

In test [1], “mouse NID1 TY-G3 (TG3) domain (from UniProt P10493 29-1245) (domain or fragment)” gave an equilibrium dissociation constant (Kd) of 585 nM.
In the case of “mouse NID2 TY-G3 (TG3) domain, Strep-tagged (from UniProt O88322 31-1403) (domain or fragment)”, the dissociation constant Kd in test [2] is greater than 3000 nM; in test [3] it was 185 nM; in test [4], 170 nM; in [5] it was 180 nM; in [1], 30 nM; in [6], 176 nM.

B1: mouse nidogen-2 (NID2), full-length, Strep-tagged (natural protein, UniProt O88322 31-1403, looked up)
chain: LRPDELFPYGESWGDQLLPEGDDESSAAVKLAIPLRFYDAQFSSLYVGTNGIISTQDFPRETQYVDDDFPTDFPAIAPFLADIDTSHSRGRILYREDTSGAVLSLAARYVRTGFPLSGSSFTPTHAFLATWEHVGAYEEVSRGAAPSGELNTFQAVLASDESDTYALFLYPANGLQFFGTRPKESYNVQLQLPARVGFCRGEADDLKREALYFSLTNTEQSVKNLYQLSNLGIPGVWAFHIGSRFALDNVRPATVGGDPSTARSSALEHPFSHAAALESYTEDSFHYYDENEEDVEYPPVEPGEAPEGHSRIDVSFNSKADPGLVDVGTSSPGSDRASPWPYPAPGNWPSYRETESASLDPQTKQGRPVGEGEVLDFRDPAELLDQMGTRAPAPPEADAALLTPVNEDLGGRNTQSYPEAGPVPSEPDVPVPPLEGEVLPHYPESGHVPPLRGGKYVIGLEDHVGSNDQVFTYNGANLETCEHSHGRCSQHAFCTDYTTGFCCHCQSRFYGNGKHCLPEGAPHRVNGKVSGRLRVGHIPVHFTDVDLHAYIVGNDGRAYTAISHVPQPAAQALLPVLPIGGLFGWLFALEKPGSENGFSLTGATFVHDVEVTFHPGEERVRITQTAEGLDPENYLSIKTNIEGQVPFIPANFTAHITPYKEFYHYRDSVVTSSSSRSFSLTSGSINQTWSYHIDQNITYQACRHAPRHLAIPATQQLTVDRAFALYSEDEGVLRFAVTNQIGPVEVDSAPVGVNPCYDGSHTCDTTARCHPGTGVDYTCECTPGFQGDGRSCVDVNECATGFHRCGPNSVCVNLVGSYRCECRSGYEFADDQHTCILIAPPPNPCLDGSHTCAPEGQARCIHHGGSSFSCACLPGFIGTGHQCSDVDECAENRCHEAAICYNTPGSFSCRCQPGYRGDGFHCTSDTVPEDSISGLKPCEYQQRYAQTQHAYPGSRIHIPQCDDQGNFVPLQCHGSTGFCWCVDRNGHEVPGTQTPPGSTPPHCGPPPEPTQRPRTVCERWRESLLEHYGGTPRDDQYVPQCDDLGHFIPLQCHGKSDFCWCVDKDGRELQGTRSQPGTRPACIPTVAPPVVRPTPRPDVTPPSVGTFLLYAQGQQIGHLPLNGSRLQKDAARTLLSLHGSIVVGIDYDCRERMVYWTDVAGRTISRASLEAGAEPETIITSGLISPEGLAIDHFRRTMYWTDSGLDKIERAELDGSERKVLFHTDLVNPRAITVDPIRGNLYWTDWNREAPKIETSSLDGENRRILINKDIGLPNGLTFDPFSKLLCWADAGTKKLECTLPDGTGRRVIQNHLNYPFSIVSYADHFYHTDWRRDGVISVNKDSGQFTDEFLPEQRSHLYGITAVYPYCPTGRK
Consider B1, for which the equilibrium dissociation constant (Kd) with laminin-511 is 5 nM; in test [7], 6 nM; in test [8], 500 nM; in test [2], greater than 3000 nM; in [3], 200 nM; in test [4] it was 210 nM. In addition, the Kd in test [5] was determined as 193 nM; in test [1], 20 nM; in [6], 160 nM. Further, the koff turned out to be 0.00081 s⁻¹ with laminin-511, 0.00073 s⁻¹ in test [7] and 0.00837 s⁻¹ in test [1]. In test [7], the on-rate constant (kon) is 120000 M⁻¹ s⁻¹.

B2: hybrid fragment: single TY domain of NID1 with the G3 domain of Nid2 (N1T-N2G3) (domain or fragment)
chain: KTRCQLEREHILGAAGGADAQRPTLQGMFVPQCDEYGHYVPTQCHHSTGYCWCVDRDGRELEGSRTPPGMRPPCIPTVAPPVVRPTPRPDVTPPSVGTFLLYAQGQQIGHLPLNGSRLQKDAARTLLSLHGSIVVGIDYDCRERMVYWTDVAGRTISRASLEAGAEPETIITSGLISPEGLAIDHFRRTMYWTDSGLDKIERAELDGSERKVLFHTDLVNPRAITVDPIRGNLYWTDWNREAPKIETSSLDGENRRILINKDIGLPNGLTFDPFSKLLCWADAGTKKLECTLPDGTGRRVIQNHLNYPFSIVSYADHFYHTDWRRDGVISVNKDSGQFTDEFLPEQRSHLYGITAVYPYCPTGRK
B2 registered a Kd in test [9] of 110 nM.

B3: hybrid fragment: two TY domains of NID2 with the G3 domain of NID1 (N2T-N1G3) (domain or fragment)
chain: LKPCEYQQRYAQTQHAYPGSRIHIPQCDDQGNFVPLQCHGSTGFCWCVDRNGHEVPGTQTPPGSTPPHCGPPPEPTQRPRTVCERWRESLLEHYGGTPRDDQYVPQCDDLGHFIPLQCHGKSDFCWCVDKDGRELQGTRSQPGTRPACLSTVAPPIHQGPVVPTAVIPLPPGTHLLFAQTGKIERLPLERNTMKKTEAKAFLHIPAKVIIGLAFDCVDKVVYWTDISEPSIGRASLHGGEPTTIIRQDLGSPEGIALDHLGRTIFWTDSQLDRIEVAKMDGTQRRVLFDTGLVNPRGIVTDPVRGNLYWTDWNRDNPKIETSHMDGTNRRILAQDNLGLPNGLTFDAFSSQLCWVDAGTHRAECLNPAQPGRRKVLEGLQYPFAVTSYGKNLYYTDWKTNSVIAMDLAISKEMDTFHPHKQTRLYGITIALSQCPQGHNYCSVNNGGCTHLCLPTPGSRTCRCPDNTLGVDCIERK
For the molecule B3, in test [9], the Kd turned out to be 170 nM.

B4: mouse nidogen-1 (NID1), full-length (natural protein, UniProt P10493 29-1245, looked up)
chain: LNRQELFPFGPGQGDLELEAGDDVVSPSLELIGELSFYDRTDITSVYVTTNGIIAMSEPPATEYHPGTFPPSFGSVAPFLADLDTTDGLGNVYYREDLSPFIIQMAAEYVQRGFPEVSFQPTSVVVVTWESVAPYGGPSSSPAEEGKRNTFQAVLASSNSSSYAIFLYPEDGLQFFTTFSKKDESQVPAVVGFSKGLVGFLWKSNGAYNIFANDRESIENLAKSSNAGHQGVWVFEIGSPATAKGVVSADVNLDLDDDGADYEDEDYDLVTSHLGLEDVATPSPSHSPRRGYPDPHNVPRILSPGYEATERPRGVPTERTRSFQLPAERFPQHHPQVIDVDEVEETGVVFSYNTGSQQTCANNRHQCSVHAECRDYATGFCCRCVANYTGNGRQCVAEGSPQRVNGKVKGRIFVGSSQVPVVFENTDLHSYVVMNHGRSYTAISTIPETVGYSLLPLAPIGGIIGWMFAVEQDGFKNGFSITGGEFTRQAEVTFLGHPGKLVLKQQFSGIDEHGHLTISTELEGRVPQIPYGASVHIEPYTELYHYSSSVITSSSTREYTVMEPDQDGAAPSHTHIYQWRQTITFQECAHDDARPALPSTQQLSVDSVFVLYNKEERILRYALSNSIGPVRDGSPDALQNPCYIGTHGCDSNAACRPGPGTQFTCECSIGFRGDGQTCYDIDECSEQPSRCGNHAVCNNLPGTFRCECVEGYHFSDRGTCVAAEDQRPINYCETGLHNCDIPQRAQCIYMGGSSYTCSCLPGFSGDGRACRDVDECQHSRCHPDAFCYNTPGSFTCQCKPGYQGDGFRCMPGEVSKTRCQLEREHILGAAGGADAQRPTLQGMFVPQCDEYGHYVPTQCHHSTGYCWCVDRDGRELEGSRTPPGMRPPCLSTVAPPIHQGPVVPTAVIPLPPGTHLLFAQTGKIERLPLERNTMKKTEAKAFLHIPAKVIIGLAFDCVDKVVYWTDISEPSIGRASLHGGEPTTIIRQDLGSPEGIALDHLGRTIFWTDSQLDRIEVAKMDGTQRRVLFDTGLVNPRGIVTDPVRGNLYWTDWNRDNPKIETSHMDGTNRRILAQDNLGLPNGLTFDAFSSQLCWVDAGTHRAECLNPAQPGRRKVLEGLQYPFAVTSYGKNLYYTDWKTNSVIAMDLAISKEMDTFHPHKQTRLYGITIALSQCPQGHNYCSVNNGGCTHLCLPTPGSRTCRCPDNTLGVDCIERK
In the test with laminin-511, B4 had a dissociation constant (Kd) of 2.4 nM and a koff of 0.0021 s⁻¹. In test [1], this molecule came in with a Kd of 560 nM.
